The test system of data set [1] is TnsA(A125D)BC + TniQ-Cascade transposition system (Aeromonas salmonicida). Kind of data set: cell_activity. Particulars: native array, native A.s. target on F plasmid; transposition in E. coli, mate-out; TACC PAM.
The test system of data set [2] is TnsA(wt)BC + TniQ-Cascade transposition system (Aeromonas salmonicida). Kind of data set: cell_activity. Particulars: wild-type TnsA; native array and native target; no detectable transposition.

In the case of “AGGACUGGAAGAAAUCAUCCAAGUUGGGGACU / TCAGGACCGGAAGGTAGCAGCCAAGGCGGGGGACTCGAGTGCCGGGATGTGGCTGATGGGGCCACCAC / GTGGTGGCCCCATCAGCCACATCCCGGCACTCGAGTCCCCCGCCTTGGCTGCTACCTTCCGGTCCTGA [ffs wild-type guide (10 mismatches) ; ffs target]”, the activity came to 0.0188% in data set [1] and 0% in data set [2].
